Assay results reported in patent US8440199B2, “Methods for mobilizing mesenchymal stem cells in a patient” (Imperial Innovations Limited, priority 2007, dated 2013).
Where two headings read alike, the source gives them in different places.

Experiments:
[1] = tested on: HPCs; test: In situ perfusion of mouse hind limb, CFU-HPC in perfusate; details: for HPC mobilization from the bone marrow: FIG. 21b
Description: 24 hours after the last injection, mice underwent perfusion of the right hind limb. […] The hind limb was then perfused for a further 50 minutes to allow collection of b, CFU-HPC; c, CFU-EPC; or d, CFU-SPC; via the femoral vein. CFU-HPC, CFU-EPC, and CFU-SPC are shown as total number of colonies collected in the perfusate. n=5-8 mice per group. Data: means±s.e.m. *: P<0.05, **: P<0.01, ***: P<0.001 between selected groups.
Female BALB/c mice were purchased from Harlan (Oxford, United Kingdom).
(§4) On day 5 following pre-treatment of growth factors, mice were anaesthetized and the femoral artery and vein exposed. The hind limb was isolated by occlusion of the external iliac artery, superficial epigastric and muscular branch. Polyethylene cannulae (Portex, London, UK) were immediately inserted into the femoral artery and vein as previously described (Martin et al., 2003; 2006; Wengner et al., 2008). Perfusion buffer was infused via the arterial cannula and removed from the venous cannula using a Minipuls peristaltic pump (Anachem, Luton, UK). The hind limb was perfused for an initial 2 minutes to remove remaining blood from the vasculature and then perfused for a further 60 min with vehicle alone or the CXCR4 antagonist (AMD3100, 0.1 mM), infused over the first 10 minutes using an infusion/withdrawal pump (Harvard Instruments, U.K.).
The perfusate was centrifuged and re-suspended in DMEM+20% FBS. […] Bone marrow, perfusate and lysed blood were then used for assays outlined below to enumerate HPCs (CFU-HPC), EPCs (CFU-EPC), SPCs (CFU-F).
5×10^4 cells were added to Methocult medium (Stem cell technologies) supplemented with specific cytokines and growth factors to enable formation of CFU-HPC. Mobilized cells were incubated for 11 days before quantification. Further characteristics of CFU-HPC colonies were obtained on day 12, namely the mean number of cells in each colony, and the mean colony area. The mean colony area (mm^2) was determined by image analysis using Scion Image analysis program (NIH). The cell number was determined by diluting colonies grown in Methocult into DMEM (to disperse the methylcellulose) and aspirating the colonies into a single cell suspension before obtaining a cell count.
(§5) The total number of colony forming units mobilized was calculated according to the number of colonies per plate×by the total number of leukocytes mobilized/number of cells seeded.

[2] = tested on: HPCs; test: Circulating CFU-HPC in blood; details: FIG. 20b
Description: a, Experimental protocol. […] 24 hours after the last injection, mice were administered a CXCR4 antagonist (AMD3100 5 mg/kg i.p, closed bars) or vehicle (PBS, open bars). 60 minutes later, blood was taken for analysis of circulating: b, CFU-HPC; c, CFU-EPC; and d, CFU-SPC. CFU-HPC, CFU-EPC, and CFU-SPC are shown as number of colonies per ml blood. n=5-8 mice per group. Data: means±s.e.m. *: P<0.05, **: P<0.01, ***: P<0.001 between selected groups.
(§6) 24 hours after the last injection, mice were administered a CXCR4 antagonist (AMD3100, 5 mg/kg i.p), KC (30 μg/kg i.v.) or vehicle and blood was collected via cardiac puncture 60 minutes later for enumeration of circulating leukocyte, HPC, EPC, and stromal progenitor cell levels.
In some experiments citrated blood was obtained via cardiac bleed and lysed for red blood cells. […] Bone marrow, perfusate and lysed blood were then used for assays outlined below to enumerate HPCs (CFU-HPC), EPCs (CFU-EPC), SPCs (CFU-F).
5×10^4 cells were added to Methocult medium (Stem cell technologies) supplemented with specific cytokines and growth factors to enable formation of CFU-HPC. Mobilized cells were incubated for 11 days before quantification.
as §5

[3] = tested on: mesenchymal stem cells (MSC); test: Example 1: MSC mobilisation, hind limb bone marrow perfusion and circulating blood, CFU-MSC assay; assay type: in vivo, mice; details: perfusate and blood, FIGS. 9-12
Description: 4×10^5 cells were added to 3 ml Mesencult media including supplements (05501 and 05502 Stemcell Technologies). Assay was performed in duplicate.

[4] = tested on: HPCs; details: cited from earlier work
[5] = tested on: SPCs; test: In situ perfusion of mouse hind limb, CFU-SPC in perfusate; assay type: in vivo, mice; details: for SPC mobilization from the bone marrow: FIG. 21d
Description: a, overview of procedures set up for identifying the direct mobilization of progenitor cells from the femoral bone marrow. […] 24 hours after the last injection, mice underwent perfusion of the right hind limb. CXCR4 antagonist (AMD3100 0.1 mM, closed bars) or vehicle (PBS, open bars) were then infused directly into the femoral artery for 10 minutes. The hind limb was then perfused for a further 50 minutes to allow collection of b, CFU-HPC; c, CFU-EPC; or d, CFU-SPC; via the femoral vein. CFU-HPC, CFU-EPC, and CFU-SPC are shown as total number of colonies collected in the perfusate. n=5-8 mice per group. Data: means±s.e.m. *: P<0.05, **: P<0.01, ***: P<0.001 between selected groups.
as §6, §4
(§7) The perfusate was centrifuged and re-suspended in DMEM+20% FBS. In some experiments citrated blood was obtained via cardiac bleed and lysed for red blood cells. Bone marrow and perfusate cytospins, and blood smears were stained using DiffQuik for the enumeration of mononuclear cells, eosinophils, and neutrophils. Bone marrow, perfusate and lysed blood were then used for assays outlined below to enumerate HPCs (CFU-HPC), EPCs (CFU-EPC), SPCs (CFU-F).
(§8) 5×10^5 cells were added to Mesencult media including supplements (Stemcell Technologies). Dishes were incubated for 7 days before media was changed, and then incubated for a further 14 days before the enumeration of SPC colonies (CFU-F).
as §5

[6] = tested on: EPCs; test: Circulating CFU-EPC in blood; assay type: in vivo, mice; details: FIG. 20c
[7] = tested on: SPCs; test: Circulating CFU-SPC (CFU-F) in blood; details: agent alone (AMD3100 5 mg/kg i.p., blood at 60 min; G-CSF once daily for 4 days), FIG. 20d
Description: 24 hours after the last injection, mice were administered a CXCR4 antagonist (AMD3100 5 mg/kg i.p, closed bars) or vehicle (PBS, open bars). 60 minutes later, blood was taken for analysis of circulating: b, CFU-HPC; c, CFU-EPC; and d, CFU-SPC. CFU-HPC, CFU-EPC, and CFU-SPC are shown as number of colonies per ml blood. n=5-8 mice per group. Data: means±s.e.m. *: P<0.05, **: P<0.01, ***: P<0.001 between selected groups.
(§9) Female BALB/c mice were purchased from Harlan (Oxford, United Kingdom). […] 24 hours after the last injection, mice were administered a CXCR4 antagonist (AMD3100, 5 mg/kg i.p), KC (30 μg/kg i.v.) or vehicle and blood was collected via cardiac puncture 60 minutes later for enumeration of circulating leukocyte, HPC, EPC, and stromal progenitor cell levels.
The perfusate was centrifuged and re-suspended in DMEM+20% FBS. In some experiments citrated blood was obtained via cardiac bleed and lysed for red blood cells. Bone marrow and perfusate cytospins, and blood smears were stained using DiffQuik for the enumeration of mononuclear cells, eosinophils, and neutrophils. […]
The total number of colony forming units mobilized was calculated according to the number of colonies per plate×by the total number of leukocytes mobilized/number of cells seeded. […]

[8] = tested on: haematopoietic progenitor cells (HPC); test: Example 1: HPC mobilisation, hind limb bone marrow perfusion and circulating blood, CFU-HPC assay; assay type: in vivo, mice
Description: Assay was performed in duplicate Mobilised cells were maintained in semi-solid methylcellulose cultures for 11 days before quantification of the number of CFU-HPCs.

[9] = tested on: EPCs; test: In situ perfusion of mouse hind limb, CFU-EPC in perfusate; assay type: in vivo, mice; details: for EPC mobilization from the bone marrow: agent alone (CXCR4 antagonist 0.1 mM infused 10 min; G-CSF or VEGF pre-treatment 4 days), FIG. 21c
[10] = tested on: endothelial progenitor cells (EPC); test: Example 1: EPC mobilisation, hind limb bone marrow perfusion and circulating blood, CFU-EPC assay; details: for EPC mobilization: perfusate and blood
Description: 24 hours after the last injection, mice were administered a CXCR4 antagonist (AMD3100, 5 mg/kg i.p), or vehicle and blood was collected via cardiac puncture 1 hour later for enumeration of circulating leukocyte, HPC, EPC and MSC levels.
On day 5, mice were anaesthetized with urethane (25% 0.2 ml i.p.) and the femoral artery and vein exposed. The hind limb was isolated by occlusion of the external iliac artery, superficial epigastric and muscular branch with 5/0 braided silk suture. Polyethylene cannulae (0.61 mm OD, Portex, London, UK) were immediately inserted into the femoral artery and vein and tied in place with 5/0 braided silk suture. Perfusion buffer (modified Krebs-Ringer bicarbonate buffer) at 37° C. was infused (0.15 ml/min) via the arterial cannula and removed from the venous cannula using a Minipuls peristaltic pump (Anachem, Luton, UK). The hind limb was perfused for an initial 10 minutes to remove remaining blood from the vasculature and then perfused for a further 60 min with vehicle alone or AMD3100, a CXCR4 antagonist (0.1 mM, Sigma UK) infused over the first 10 minutes using an infusion/withdrawal pump (Harvard Instruments, U.K.).
The perfusate was collected and centrifuged and the cell pellet re-suspended in Dulbecco's modified eagles medium (DMEM) with 20% fetal bovine serum (FBS). A total cell count was performed before the perfusate was lysed for red blood cells, re-suspended again in DMEM (20% FBS) and used for assays outlined below to enumerate haematopoietic progenitor cells (CFU-HPC), endothelial progenitor cells (CFU-EPC), and leukocyte populations.
In some experiments blood was taken to enumerate HPCs, EPCs and leukocytes. A total cell count was performed on citrated blood before being lysed for red blood cells and re-suspended in DMEM (20% FBS).
Assay was performed in duplicate. Dishes were incubated for 7 days before media was changed, and then incubated for a further 14 days before the enumeration of late outgrowth endothelial progenitor cells. Early outgrowth endothelial progenitor cells were enumerated on day 5.
In each of the above assays, the total number of colony forming units mobilised is calculated according to the number of colonies per plate×by the total number of leukocytes mobilized/number of cells seeded.
Mice were anaesthetised and the femoral artery and vein was cannulated such that the femoral bone marrow could be perfused (Martin et al, (2006) Br. J. Haem. 134: 326-329). […]
Mice were injected i.p. with the CXCR4 antagonist, AMD3100, (or vehicle control) and 1 h later the mice were killed. Blood was collected by cardiac puncture and stem cell numbers in the blood were determined. […]

[11] = tested on: EPCs; test: In vitro chemotaxis of bone marrow EPCs towards SDF-1α; assay type: cell-based; details: bone marrow cells of mice treated 4 days; 30 nM SDF-1α, FIG. 23e, 23g
Description: (§1) Bone marrow was aspirated on day 5 and harvested cells were used to determine a, SDF-1α levels in bone marrow supernatant as determined by ELISA; b, % of bone marrow Lin^− Sca-1^+ cells expressing CXCR4; and c, % of bone marrow CD34^+ VEGFR2^+ cells expressing CXCR4. Harvested cells were also utilized in the following chemotaxis assays: d, number of HPCs; and e, EPCs undergoing chemotaxis towards 30 nM SDF-1α. Cells taken from bone marrow of mice treated with G-CSF (closed bars) or vehicle (PBS, open bars). f, number of HPCs; and g, EPCs undergoing chemotaxis towards 30 nM SDF-1α.

[12] = Total number of cells in the femurs; assay type: in vivo; details: treated over 4 days; not significantly different compared to control mice
Description: (§10) 24 hours after the last injection, bone marrow was aspirated for the enumeration of a, CFU-HPC bone marrow frequency; b, CFU-EPC bone marrow frequency; and c, CFU-SPC bone marrow frequency.
as §6, §7

[13] = tested on: neutrophils; test: Leukocyte counts of bone marrow; assay type: in vivo, mice; details: treated 4 days, compared to controls, FIG. 24f
Description: 24 hours later these mice underwent perfusion of the right hind limb. CXCR4 antagonist (AMD3100 0.1 mM, closed bars) or vehicle (PBS, open bars) were then infused directly into the femoral artery for 10 minutes. The hind limb was then perfused for a further 50 minutes to allow collection of a, neutrophils via the femoral vein. […] The hind limb was again perfused for a further 50 minutes to allow b, collection of neutrophils.
The perfusate was centrifuged and re-suspended in DMEM+20% FBS. […] Bone marrow and perfusate cytospins, and blood smears were stained using DiffQuik for the enumeration of mononuclear cells, eosinophils, and neutrophils.

[14] = tested on: Lin^− Sca-1^+ HPCs; test: PI staining, cell cycle status of Lin- Sca-1+ HPCs; assay type: in vivo, mice; details: treated 4 days, FIG. 25c
Description: (§2) For flow cytometric analysis, cells were re-suspended in FACS buffer. To identify neutrophils in the bone marrow, surface expression of the granulocyte marker Ly-6G/Ly6C (Gr-1) was determined. Neutrophils were identified as Gr-1^high positive cells with a characteristic high side scatter profile. HPCs residing in the BM were selected as being negative for lineage (Lin^−) markers: CD3e, CD11b, CD45R, Ly-76, and Gr-1 and positive for Sca-1 (Lin^− Sca-1^+ cells) (Gerber et al., 2002; Uchida, et al., 1997). EPCs residing in the BM were selected as being positive for both CD34 and VEGFR2 (CD34^+ VEGFR2^+ cells) (Asahara et al., 1997; Yoon et al., 2005). […] Samples were then washed and then quantified on a FACSAria cell sorter (BD Biosciences, Oxford, United Kingdom) and analysed using FACSDiva software.
(§3) Lin^− Sca-1^+ cells and CD34^+ VEGFR2^+ cells were analysed to determine their cell cycling status using a propidium iodide (PI) stain. […] A dotplot of PI-Width against PI-Area was recorded. Aggregates of cells were detected as cells having a larger PI-W profile and were not included in the gate. […] To calculate the percentage of cells undergoing active cell cycling, a marker was set to exclude the G0/G1 peak and the percentage of cells in S/G2/M was calculated.

[15] = tested on: HPCs; test: In vitro chemotaxis of bone marrow HPCs towards SDF-1α; assay type: cell-based; details: bone marrow cells of mice treated 4 days; 30 nM SDF-1α, FIG. 23d, 23f
Description: as §1

[16] = tested on: CXCR4; test: Flow cytometry of CXCR4 expression on bone marrow HPCs and EPCs; assay type: in vivo, mice; details: treated 4 days
Description: as §1
For flow cytometric analysis, cells were re-suspended in FACS buffer. To identify neutrophils in the bone marrow, surface expression of the granulocyte marker Ly-6G/Ly6C (Gr-1) was determined. Neutrophils were identified as Gr-1^high positive cells with a characteristic high side scatter profile. HPCs residing in the BM were selected as being negative for lineage (Lin^−) markers: CD3e, CD11b, CD45R, Ly-76, and Gr-1 and positive for Sca-1 (Lin^− Sca-1^+ cells) (Gerber et al., 2002; Uchida, et al., 1997). EPCs residing in the BM were selected as being positive for both CD34 and VEGFR2 (CD34^+ VEGFR2^+ cells) (Asahara et al., 1997; Yoon et al., 2005). Furthermore, neutrophils were stained for the surface expression of CXCR2, whilst Lin^− Sca-1^+ cells and CD34^+ VEGFR2^+ cells were stained for the cell surface expression of CXCR4. Samples were then washed and then quantified on a FACSAria cell sorter (BD Biosciences, Oxford, United Kingdom) and analysed using FACSDiva software.

[17] = tested on: SDF-1α; test: SDF-1α ELISA on bone marrow supernatants; assay type: in vivo, mice; details: treated once daily for 4 days, FIG. 23a
Description: as §1
Supernatant from bone marrow aspirates was analyzed for SDF-1α content as per the recommended protocol for the capture and detection antibody (MAB350 and BAF310 respectively. RnD systems).

[18] = tested on: SPCs; test: CFU-SPC bone marrow frequency; assay type: in vivo, mice; details: treated over 4 days, compared to controls, FIG. 22c
Description: as §10, §9, §7, §8

[19] = tested on: CD34^+ VEGFR2^+ EPCs; test: PI staining, cell cycle status of CD34+ VEGFR2+ EPCs; assay type: in vivo, mice; details: treated 4 days, FIG. 25d
Description: as §2, §3

[20] = tested on: EPCs; test: CFU-EPC bone marrow frequency; assay type: in vivo, mice; details: treated over 4 days, compared to controls, FIG. 22b
[21] = tested on: HPCs and MSCs; details: Ripa et al. (2007) Circulation 116; cited from earlier work
[22] = agent alone (CXCR4 antagonist 0.1 mM infused 10 min; G-CSF or VEGF pre-treatment 4 days), perfusate over 1 hour
[23] = agent alone (AMD3100 5 mg/kg i.p., blood at 60 min; G-CSF or VEGF once daily for 4 days)
[24] = agent alone (CXCR4 antagonist 0.1 mM infused 10 min; G-CSF or VEGF pre-treatment 4 days)
[25] = growth factor pre-treatment 4 days, then CXCR4 antagonist infused

c1cc(CN2CCCNCCNCCCNCC2)ccc1CN1CCCNCCNCCCNCC1 [AMD3100, reference compound]
HPC mobilization from the bone marrow [1, 22]: HPCs and EPCs, but not SPCs were mobilized
circulating numbers of HPCs [2, 23]: increased circulating numbers of HPCs and EPCs
MSC mobilization ([3]; agent alone): does not mobilize MSCs
circulating numbers of HPCs ([4]; AMD3100 alone, mice and humans): stimulates a rapid rise in circulating numbers of HPCs in both mice and humans
SPC mobilization from the bone marrow [5, 24]: HPCs and EPCs, but not SPCs were mobilized
circulating numbers of EPCs [6, 23]: increased circulating numbers of HPCs and EPCs
circulating SPCs [7]: SPCs were not detected in the blood
HPCs mobilised (number) ([8]; AMD3100 alone, 0.1 mM infused into hind limb, perfusate, FIG. 3): about 4000
EPC mobilization from the bone marrow [9]: HPCs and EPCs, but not SPCs were mobilized
EPCs mobilised (number) ([10]; AMD3100 alone, 0.1 mM infused into hind limb, perfusate, FIG. 5): ~400
EPC mobilization ([10]; agent alone, FIGS. 5 and 6): stimulates the mobilization of EPCs

B1: G-CSF: Granulocyte-colony stimulating factor, recombinant murine cytokine from PeproTech (protein, UniProt P09920 31-208, looked up)
Granulocyte …: VPLVTVSALPPSLPLPRSFLLKSLEQVRKIQASGSVLLEQLCATYKLCHPEELVLLGHSLGIPKASLSGCSSQALQQTQCLSQLHSGLCLYQGLLQALSGISPALAPTLDLLQLDVANFATTIWQQMENLGVAPTVQPTQSAMPAFTSAFQRRAGGVLAISYLQGFLETARLALHHLA
EPC chemotaxis towards SDF-1α [11]: further increased migration of HPCs and EPCs to SDF-1α
total number of cells in the femurs [12]: 1.41±0.28×10^7 cells/femur
numbers of neutrophils in the bone marrow [13]: increased numbers of neutrophils in the bone marrow
HPC mobilization from the bone marrow [1, 22]: enhanced the basal rate of HPC and EPC egress from the bone marrow
HPC mobilization, acute administration ([1]; growth factor (50 nM) infused into femoral artery for 10 minutes, alone, FIG. 31a): mobilized both HPCs and EPCs
HPC mobilization from the bone marrow [1, 25]: synergistic mobilization of HPCs
percentage of Lin- Sca-1+ HPCs in S/G2/M phase of the cell-cycle [14]: does not stimulate entry
HPC chemotaxis towards SDF-1α [15]: further increased migration of HPCs and EPCs to SDF-1α
circulating numbers of HPCs [2, 23]: increased circulating numbers of HPCs
circulating numbers of HPCs ([2]; growth factor pre-treatment over 4 days, then CXCR4 antagonist AMD3100 5 mg/kg i.p., blood at 60 min): synergistically enhanced circulating numbers of HPCs
MSC mobilization ([3]; G-CSF or VEGF 2.5 μg on 4 consecutive days, then AMD3100): does not mobilize MSCs
MSC mobilization ([3]; agent alone): does not mobilize MSCs
HPC mobilization ([4]; chronic G-CSF treatment combined with acute treatment with AMD3100): synergistic effect
CXCR4 expression on EPCs ([16]; CD34+ VEGFR2+ bone marrow cells, FIG. 23c): the expression of CXCR4 on EPCs was unchanged
CXCR4 expression on HPCs ([16]; Lin- Sca-1+ bone marrow cells, FIG. 23b): significant reduction
SDF-1α levels in bone marrow supernatant [17]: significant reduction in levels of SDF-1α
SPC mobilization from the bone marrow [5, 24]: did not lead to the mobilization of SPCs
SPC mobilization, acute administration ([5]; growth factor (50 nM) infused acutely, alone or in combination with CXCR4 antagonist, FIG. 31c): neither growth factor, when administered acutely or in combination with the CXCR4 antagonist led to mobilization of SPCs
SPC mobilization from the bone marrow [5, 25]: no SPCs were mobilized
circulating numbers of EPCs ([6]; growth factor pre-treatment over 4 days, then CXCR4 antagonist AMD3100 5 mg/kg i.p.): no such synergism (or even additive effect) was apparent for EPC mobilization
frequency/number of SPCs in the bone marrow [18]: an increase in the number of SPCs
circulating SPCs [7]: no SPCs were detected
HPC mobilization ([8]; G-CSF or VEGF 2.5 μg on 4 consecutive days, then AMD3100 (0.1 mM infusion or 5 mg/kg i.p.), perfusate and blood, FIGS. 1-4): acts synergistically with AMD3100 to mobilize HPCs
EPC mobilization from the bone marrow [9]: enhanced the basal rate of HPC and EPC egress from the bone marrow
EPC mobilization, acute administration ([9]; growth factor (50 nM) infused into femoral artery for 10 minutes, alone, FIG. 31b): mobilized both HPCs and EPCs
percentage of CD34+ VEGFR2+ EPCs in S/G2/M phase of the cell-cycle [19]: does not stimulate entry
frequency/number of EPCs in the bone marrow [20]: significant reduction in the number of bone marrow EPCs
stem cell mobilisation [21]: mobilises HPCs but causes a decrease in MSCs
EPC mobilization ([10]; G-CSF or VEGF 2.5 μg on 4 consecutive days, then AMD3100, FIGS. 5-8): not enhanced
